Data: patent US20220089755A1 (COMMISSARIAT A L ENERGIE ATOMIQUE ET AUX ENERGIES …, published 2022)

What was measured:
[1] = target: T1, endothelin receptor subtype A (ETA-R) expressed on the surface of Gli-7 glioblastoma cells (human, UniProt P25101 21-427); test: flow cytometry on Gli-7 glioblastoma cells
T1 construct: whole, on cells; also called ETA-R on Gli-7; ETAR on glioblastoma cells
T1 sequence (looked up): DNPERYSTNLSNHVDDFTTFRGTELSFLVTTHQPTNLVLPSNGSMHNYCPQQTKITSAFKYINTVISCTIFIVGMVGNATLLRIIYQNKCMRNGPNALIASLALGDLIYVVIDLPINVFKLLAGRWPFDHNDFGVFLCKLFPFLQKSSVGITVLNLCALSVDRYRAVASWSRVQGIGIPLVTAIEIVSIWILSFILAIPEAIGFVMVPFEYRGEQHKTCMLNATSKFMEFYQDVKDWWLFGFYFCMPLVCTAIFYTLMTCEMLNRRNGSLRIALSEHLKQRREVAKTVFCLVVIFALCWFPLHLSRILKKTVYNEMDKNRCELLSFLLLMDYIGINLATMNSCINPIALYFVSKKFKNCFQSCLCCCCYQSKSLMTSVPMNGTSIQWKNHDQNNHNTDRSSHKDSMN

[2] = target: T2, endothelin receptor subtype A (ETA-R) expressed on stably transfected CHO cells (CHO-ETAR) (UniProt P25101 21-427, limits assumed); test: flow cytometry on CHO-ETAR cells, apparent Kd, one-site fit, with or without 100 nM ET1
T2 construct: whole, on cells; also called endothelin type A receptor
T2 sequence (looked up): T1 sequence (looked up)
Experimental: The fluorescence is quantified by flow cytometry on an FACSCalibur™ (BD Bioscience). A range of concentrations of antibodies lying between, at a maximum, 1 μM and, at a minimum, […] was incubated for 2 hours at 4° C. in the presence or not of 100 nM ET1 (preincubated for 30 minutes at 4° C.). At 90% confluence, the cells are detached in the presence of versene and then aliquoted in tubes (300 μl/300,000 cells) in the presence of a saturation buffer (PBS-SNC 5%-BSA 0.1%) stored at 4° C. After three washes in PBS buffer, 300 μl of secondary antibody labeled with Alexa Fluor™ 488 (AF-488) diluted to 1/400 was added and incubated for 60 minutes at 4° C. (Goat anti-mouse IgG, Invitrogen-ref A10684). For each antibody concentration point, after three washes in PBS, 10,000 cells were counted with flow cytometry.
The data were analysed in the GraphPad Prism software and the curves modelled according to the parameter: a specific binding site. […] The binding of RA63 was therefore not modified in the presence of ET1.

- Kd [1]: ~15 nM
- Kd [2]: ~0.5 nM
B1: Rendomab-A63 (antibody, mouse IgG2b, V domains shown)
VH: EVQLVESGGGLVQPKGSLKLSCAASGFTFNIYAMNWIRQAPGKGLEWIARIRSKSNNYATYYADSVKDRFTISRDDSQNMVYLQMNNLKTEDTAMYYCVSSYYSGSFFAYWGQGTLVTVSA
VL: DVLMTQTPLSLPVSLGDQASISCRSSQSIVYSNGKIYLEWYLQKPGQSPKLLIYKVSNRFSGVPDRFSGSGSGTDFTLKISRVEAEDLGVYYCFQGSHLPLTFGAGTKLELKR
notes: also called RA63; monoclonal murine antibody from the hybridoma CNCM I-5250
